# According to patent publication US20220112308A1 (Genentech, published 2022):
# Biological target: T1, KRas^WT-GDP (recombinant) (human, UniProt P01116-2 2-169, GDP bound)
# Experiment: SPR, IgG captured, KRas as analyte
# Procedure: (§1) SPR experiments were carried out on the Mass-1 (Bruker) at 25° C. using HBS-P+(GE Healthcare) running buffer. 1 μg/mL of the anti-KRas antibodies were captured using an anti-HuIgG1 Fc capture kit (GE Healthcare). […] KRas^G12C-GDP was titrated using a dilution series from 5000-0 nM. KRas^G12C-GDP+ARS1620 was titrated using a dilution series from 1000-0 nM. KRas^G12C-GDP+ARS853 was titrated using a dilution series from 200-0 nM. KRasWT-GDP was titrated using a dilution series from 2000-0 nM. Sensorgrams were fit to a 1:1 Langmuir model to identify kinetic parameters.
row,binding result,Binder
1,no binding (tested: titrated 2000-0 nM),"anti-KRas antibody 1F4 (antibody, human IgG1, V domains shown) VH: EVQLVESGGGLVQPGGSLRLSCAASGFTFSSYSMNWVRQAPGKGLEWVSYISSSSSTIYYADSVKGRFTISRDNAKNSLYLQMNSLRAEDTAVYYCARSFGPYAFDVWGQGTLVTVSS VL: not shown"
2,no binding (tested: titrated 2000-0 nM),"anti-KRas antibody 1B7 (antibody, human IgG1, V domains shown, also called Class I anti-KRas antibody) VH: EVQLVQSGAEVKKPGSSVKVSCKASGGTFSSYAISWVRQAPGQGLEWMGGIIPIFGTANYAQKFQGRVTITADESTSTAYMELSSLRSEDTAVYYCARYYDFWSGYPGGLFDVWGQGTLVTVSS VL: SVLTQPPSVSAAPGQKVTISCSGSSSNIGNNYVSWYQQLPGTAPKLLIYDNNKRPSGIPDRFSGSKSGTSATLGITGLQTGDEADYYCGTWDSSLTGWVFGGGTKLTVL"
3,no binding (tested: titrated 2000-0 nM),"anti-KRas antibody 1A6 (antibody, human IgG1, V domains shown, also called Class I anti-KRas antibody) VH: EVQLVQSGAEVKKPGSSVKVSCKASGGTFSSYAISWVRQAPGQGLEWMGGIIPIFGTANYAQKFQGRVTITADESTSTAYMELSSLRSEDTAVYYCARYYDFWSGYPGGLFDVWGQGTLVTVSS VL: SVLTQPPSVSAAPGQKVTISCSGSSSNIGNNYVSWYQQLPGTAPKLLIYDNNKRPSGIPDRFSGSKSGTSATLGITGLQTGDEADYYCGTWDSSLTGYVFGGGTKLTVL"
4,no binding (tested: titrated 2000-0 nM),"anti-KRas antibody 2C1 (antibody, V domains shown, also called Class I anti-KRas antibody) VH: EVQLVESGGGLVKPGGSLRLSCAASGFTFSSYSMNWVRQAPGKGLEWVSSISSSSSYIYYADSVKGRFTISRDNAKNSLYLQMNSLRAEDTAVYYCARAFYSYMDVWGQGTLVTVSS VL: not shown"
5,no binding (tested: titrated 2000-0 nM),"anti-KRas antibody 1D6 (antibody, human IgG1, V domains shown, also called Class I anti-KRas antibody) VH: EVQLVESGGGLVQPGGSLRLSCAASGFTFSSYAMSWVRQAPGKGLEWVSAISSSGSSTYYADSVKGRFTISRDNSKNTLYLQMNSLRAEDTAVYYCARDQGGYGYPGESWFDYWGQGTLVTVSS VL: DIQMTQSPSSLSASVGDRVTITCRASQGISSYLAWYQQKPGKAPKLLIYAASSLQSGVPSRFSGSGSGTDFTLTISSLQPEDFATYYCQQYYSYPFTFGQGTKVEIK"

# Biological target: T1, KRas^WT-GDP (recombinant)
# Experiment: SPR, IgG captured by anti-human IgG1 Fc, KRas in solution, 25 C, 1:1 Langmuir fit
# Procedure: as §1
row,Kd,Binder
1,24 nM,"anti-KRas antibody 3A12 (antibody, V domains shown, also called Class II anti-KRas antibody) VH: EVQLVESGGGLVQPGGSLRLSCAASGFTFSSYSMNWVRQAPGKGLEWVSYISSSSSTIYYADSVKGRFTISRDNAKNSLYLQMNSLRAEDTAVYYCARGKGIVGWGFFGMDVWGQGTLVTVSS VL: SVLTQPPSVSAAPGQKVTISCSGSSSNIGNNYVSWYQQLPGTAPKLLIYDNNKRPSGIPDRFSGSKSGTSATLGITGLQTGDEADYYCGTWDNSLSVWVFGGGTKLTVL"
2,411 nM,"anti-KRas antibody 1E5 (antibody, V domains shown, also called Class II anti-KRas antibody) VH: EVQLVESGGGLVKPGGSLRLSCAASGFTFSSYSMNWVRQAPGKGLEWVSSISSSSSYIYYADSVKGRFTISRDNAKNSLYLQMNSLRAEDTAVYYCARTNNYGYRYFDYWGQGTLVTVSS VL: LTQDPAVSVALGQTVRITCQGDSLRSYYASWYQQKPGQAPVLVIYGKNNRPSGIPDRFSGSSSGNTASLTITGAQAEDEADYYCNSRDSSGNHWVFGGGTKLTVL"
3,71 nM,"anti-KRas antibody 2A3 (antibody, human IgG1, V domains shown, also called Class II anti-KRas antibody) VH: EVQLVESGGGLVKPGGSLRLSCAASGFTFSSYSMNWVRQAPGKGLEWVSSISSSSSYIYYADSVKGRFTISRDNAKNSLYLQMNSLRAEDTAVYYCARATSSGYYYFDYWGQGTLVTVSS VL: ELTQDPAVSVALGQTVRITCQGDSLRSYYASWYQQKPGQAPVLVIYGKNNRPSGIPDRFSGSSSGNTASLTITGAQAEDEADYYCNSRDSTDNHLWVFGGGTKLTVL"
4,159 nM,"anti-KRas antibody 1A5 (antibody, human IgG1, V domains shown, also called Class I anti-KRas antibody; 1A5-488 (labelled form in FACS)) VH: EVQLVESGGGLVQPGGSLRLSCAASGFTFSSYSMNWVRQAPGKGLEWVSYISSSSSTIYYADSVKGRFTISRDNAKNSLYLQMNSLRAEDTAVYYCARGFYVRNWFDPWGQGTLVTVSS VL: AIQMTQSPSSLSASVGDRVTITCRASQGIRNDLGWYQQKPGKAPKLLIYAASSLQSGVPSRFSGSGSGTDFTLTISSLQPEDFATYYCLQDHDYPLTFGQGTKVEIK"
5,42 nM,"anti-KRas antibody 2H11 (antibody, human IgG1, V domains shown, also called Class II anti-KRas antibody; CLAMP) VH: EVQLQESGPGLVKPPGTLSLTCAVSGGSISSSNWWSWVRQPPGKGLEWIGEIYHSGSTNYNPSLKSRVTISVDKSKNQFSLKLSSVTAADTAVYYCARGSSSWYDLGPFDYWGQGTLVTVSS VL: not shown"

# Biological target: KRas^WT-GTP (recombinant) (human, UniProt P01116-2 2-169, GTP bound as printed in Table 1B)
# Experiment: SPR, KRas bound to GTP (Table 1B)
row,Kd,Binder
1,7 nM,"anti-KRas antibody 2A3 (antibody, human IgG1, V domains shown, also called Class II anti-KRas antibody) VH: EVQLVESGGGLVKPGGSLRLSCAASGFTFSSYSMNWVRQAPGKGLEWVSSISSSSSYIYYADSVKGRFTISRDNAKNSLYLQMNSLRAEDTAVYYCARATSSGYYYFDYWGQGTLVTVSS VL: ELTQDPAVSVALGQTVRITCQGDSLRSYYASWYQQKPGQAPVLVIYGKNNRPSGIPDRFSGSSSGNTASLTITGAQAEDEADYYCNSRDSTDNHLWVFGGGTKLTVL"
